Numbering of substitutions follows the chain as printed. Like-named read-outs stand apart in the source and are kept apart here.
Experiments:
[1] = molecular target: T1, human IGFBP7 recombinant protein (UniProt Q16270 27-282, biotinylated with EZ-LINK NHS-PEG4 biotin in the BLI assays (sites not given)); experiment: BLI
T1 chain: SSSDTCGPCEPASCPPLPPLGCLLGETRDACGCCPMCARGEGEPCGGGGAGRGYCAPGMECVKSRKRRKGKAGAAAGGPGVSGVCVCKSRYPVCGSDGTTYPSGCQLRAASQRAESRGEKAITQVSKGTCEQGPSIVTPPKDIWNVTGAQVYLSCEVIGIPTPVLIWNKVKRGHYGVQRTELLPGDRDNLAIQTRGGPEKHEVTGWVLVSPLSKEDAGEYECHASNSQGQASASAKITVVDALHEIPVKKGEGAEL

[2] = molecular target: T2, mouse IGFBP7 recombinant protein (mouse, UniProt Q61581 26-281, biotinylated with EZ-LINK NHS-PEG4 biotin in the BLI assays (sites not given)); experiment: BLI
T2 chain: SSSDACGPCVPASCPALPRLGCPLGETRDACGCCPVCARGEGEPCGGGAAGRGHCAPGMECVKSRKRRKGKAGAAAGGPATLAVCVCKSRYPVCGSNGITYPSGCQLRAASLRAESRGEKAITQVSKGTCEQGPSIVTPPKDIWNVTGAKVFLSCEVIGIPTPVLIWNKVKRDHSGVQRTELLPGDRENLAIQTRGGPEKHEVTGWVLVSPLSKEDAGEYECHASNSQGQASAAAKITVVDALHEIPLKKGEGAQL

[3] = molecular target: T3, mouse IGFBP7 recombinant protein (mouse, UniProt Q61581 26-281, limits assumed, biotinylated with EZ-LINK NHS-PEG4 biotin in the BLI assays (sites not given)); experiment: BLI (Octet QKe), biotinylated IGFBP7 on streptavidin biosensors (FIG. 10)
T3 construct: Soluble protein in ELISA and BLI; also called mIGFBP7
T3 sequence (looked up): T2 chain
Protocol: (§1) The binding affinity of anti-IGFBP7 nanobody Fc-fusion constructs (e.g., VHH-Fc-fusion constructs) were determined with bio-layer interferometry (BLI) using Octet QKe (Fortebio). Human, mouse, and cynomolgus IGFBP7 were biotinylated using EZ-LINK NHS-PEG4 biotin (Thermo Fisher Scientific). Streptavidin biosensors (ForteBio) were used to load biotinylated IGFBP7 protein (300 seconds in 5 μg/mL). Baseline was stabilized for 60 seconds in 1× kinetics buffer (ForteBio) before anti-IGFBP7 Fc-fucion proteins (serial dilution) were allowed to associate for 300 seconds with captured hIGFBP7 or mIGFBP7. Then the sensors were dissociated in 1× kinetics buffer for 600 seconds. Data analysis was performed on ForteBio Data Analysis HT 11.1 software.

[4] = molecular target: T4, cynomolgus IGFBP7 recombinant protein (cynomolgus); experiment: BLI
T4 chain: T1 chain with S13A, E215D

[5] = molecular target: T2, mouse IGFBP7 recombinant protein; experiment: BLI
[6] = molecular target: T1, human IGFBP7 recombinant protein; experiment: BLI
[7] = molecular target: T5, human IGFBP7 recombinant protein (human, UniProt Q16270 27-282, biotinylated with EZ-LINK NHS-PEG4 biotin in the BLI assays (sites not given)); experiment: BLI (Octet QKe), biotinylated IGFBP7 on streptavidin biosensors (FIG. 9)
T5 construct: Soluble protein used for ELISA coating and, biotinylated, on streptavidin biosensors (Octet); also called hIGFBP7; biotinylated IGFBP7 protein
T5 sequence: T1 chain
Protocol: as §1

[8] = molecular target: T2, mouse IGFBP7 recombinant protein; experiment: BLI
[9] = molecular target: T1, human IGFBP7 recombinant protein; experiment: BLI
[10] = molecular target: T6, human IGFBP7 displayed on HEK293T cells (human, UniProt Q16270 27-282); experiment: flow cytometry on human IGFBP7 displaying HEK293T cells, nanobody 10 ug/ml, APC anti-HIS detection
T6 construct: domain: CD80 transmembrane domain; signal peptide stated as residues 1-26; also called hIGFBP7; hIGFBP7-HEK cells; not shown: linker; CD80 transmembrane domain
T6 sequence: T1 chain
Protocol: (§2) Human IGFBP7 and mouse IGFBP7 displaying HEK293T cells were detached by incubation with TrypLE reagents (Thermos Fisher), which preserves the integrity of IGFBP7 on the cell surface. Then the cells were incubated with anti-IGFBP7 nanobodies at 10 μg/ml for 30 minutes in 4° C. After washing by FACS buffer, the cells were incubated with APC conjugated anti-HIS antibodies (Biolegend) for 30 minutes in 4° C. After washing by FACS buffer twice, the samples were acquired in NovoCyte Flow Cytometer and analyzed by NovoExpress software.

[11] = molecular target: T3, mouse IGFBP7 recombinant protein; experiment: ELISA
[12] = molecular target: T5, human IGFBP7 recombinant protein; experiment: ELISA
[13] = molecular target: T7, mouse IGFBP7 displayed on cells (HEK293T or CHO-K1) (mouse, UniProt Q61581 26-281); experiment: flow cytometry on mouse IGFBP7 displaying HEK293T cells, nanobody 10 ug/ml, APC anti-HIS detection
T7 construct: whole, on cells;domain: CD80 transmembrane domain; also called mIGFBP7; mIGFBP7-HEK cells; not shown: linker; CD80 transmembrane domain
T7 sequence (looked up): T2 chain
Protocol: as §2

[14] = molecular target: T7, mouse IGFBP7 displayed on cells …; experiment: FACS on mIGFBP7-expressing CHO-K1 cells (FIG. 5)
[15] = molecular target: T8, His-tagged human IGFBP7 recombinant protein (human, UniProt Q16270 27-282); experiment: flow cytometry blockade assay: nanobody 50 ug/mL pre-incubated with His-tagged human IGFBP7 1 ug/mL, then human CD93 CHO cells (FIG. 14)
T8 construct: not shown: His tag
T8 sequence: T1 chain
Protocol: Anti-IGFBP7 nanobodies and nanobody-Fc fusions (50 μg/mL) generated in previous examples was incubated with His-tagged human IGFBP7 recombinant protein (1 μg/mL) for 30 minutes in 4° C. Human CD93 expressing CHO cells (1×10⁵ per well) were treated the mixture for 30 minutes at 4° C. Then the cells were washed with FACS buffer and incubated with anti-IGFBP7 monoclonal rabbit antibody (Sino Biological Inc, Catalog #13100-R003) at 1 μg/mL for 30 minutes in 4° C. After incubation, the cells were washed with FACS buffer and incubated with PE-conjugated anti-rabbit IgG antibody ([…]) for 30 minutes in 4° C. After washing with FACS buffer twice, the samples were analyzed and data acquired in NovoCyte Flow.

B1: D4-mIgG2a nanobody Fc-fusion (Fc fusion)
chain: VQLQESGGGLVQTGGSLRLSCAASGRSFTFSSYAMGWFRHAPGKEREFLTAITWSGDYTYYTDSVKGRSTISRDNAKNTVYLQLNNLKPEDTAVYYCAAKFSQVSAFFATVSEYEYWGQGTQVTVSS
notes: VHH fused with mIgG2a Fc fragment, expressed in Expi293 cells; also called monospecific D4-mIgG2a; not shown: mouse IgG2a Fc fragment (mIgG2a Fc)
With B1 the Kd [1] was 1.22 nM, the Kd [2] was 10.2 nM and the binding result [3] was “binds”. It also gave a Kd [4] of 1.84 nM, a Kd [5] of 12.1 nM and a Kd [6] of 1.22 nM. The binding result [7] was “binds”, the Kd [8] was 10.2 nM and the Kd [9] was 1.16 nM.

B2: anti-IGFBP7 nanobody D04 (VHH)
VHH: B1 chain
notes: Llama nanobody expressed in E. coli as His6-tagged protein; also called D4; D4 VHH; not shown: His6 tag
B2: binds [10]; binds [11]; binds [12]. B2: binds [13].

B3: anti-IGFBP7 nanobody Fc-fusion construct derived from D4 (Fc isotype not told) (Fc fusion)
chain: B1 chain
notes: may be the same as D4-mIgG2a; not shown: mouse Fc fragment, mIgG2a or mIgG1
B3: binds [14].

B4: A11 mIgG2a (antibody, V domains shown)
VH: VQLQESEGGWSGGGSGSGDFDYEKMANANNGAMTDNADAGKQREFVAAITSGGSINYADSVKGRFTISRDNTKKTVYLQMNSLKPEDTAVYVCNIKAHPNPWGFDNDYWGQGTQVTVSS
With B4 the Kd [5] was 0.0177 nM and the Kd [9] was 0.0129 nM.

B5: anti-IGFBP7 nanobody A07 (VHH)
VHH: B4 VH with D21G, E23D, N29I, R69T, T72A, Q114P, V115A, V117A
notes: Llama nanobody expressed in E. coli as His6-tagged protein; also called A7; not shown: His6 tag
In the case of B5, the “percent blocking of the CD93-IGFBP7 interaction” value (shortened to “percent blocking”) [15] is reported as at least 50%.

B6: anti-IGFBP7 nanobody A11 (VHH)
VHH: B4 VH
notes: Llama nanobody expressed in E. coli as His6-tagged protein; also called A11 VHH; not shown: His6 tag
B6 was tested, and the “percent blocking” value [15] was at least 50%.

B7: bispecific anti-IGFBP7 nanobody Fc-fusion construct A1D4-mIgG2a (bispecific antibody)
chain: VQLQESGGGLVQAGGSLRLSCAASGSLFAIDKWGWYRQVAGNERELVAWRYSPVSINYGDSVKGRFTVSGDSSRKRVYLQMNSLKPDDTAVYRCAAVISGAWYWGQGTQVTVSSVQLQESGGGLVQTGGSLRLSCAASGRSFTFSSYAMGWFRHAPGKEREFLTAITWSGDYTYYTDSVKGRSTISRDNAKNTVYLQLNNLKPEDTAVYYCAAKFSQVSAFFATVSEYEYWGQGTQVTVSS
Binder B7 has a Kd [1] of 0.902 nM, a Kd [2] of 1.07 nM and a Kd [4] of 0.939 nM. It also gave a Kd [6] of 0.902 nM and a Kd [8] of 1.07 nM.

B8: A4-mIgG2a nanobody Fc-fusion (Fc fusion)
chain: VQLQESGGGLVQPGGSLRLSCAASGTFTINTYLWYRQPPGKQREFVAAITRGGSINYADSVKGRFTISRDNAKKTVYLQMNSLKPEDTAVYVCNIKAHPNPWGFDNDYWGQGTQVTVSS
Work on B8 yielded a Kd [5] of 0.0078 nM and a Kd [9] of 1.2 nM.

B9: anti-IGFBP7 nanobody A03 (VHH)
VHH: B8 chain with P13A, T28S, R51S
notes: Llama nanobody expressed in E. coli as His6-tagged protein; also called A3; not shown: His6 tag
For B9, the “percent blocking” value [15] was at least 50%.

B10: anti-IGFBP7 nanobody A04 (VHH)
VHH: B8 chain
notes: Llama nanobody expressed in E. coli as His6-tagged protein; also called A4; A4 VHH; not shown: His6 tag
With B10 the “percent blocking” value [15] was at least 50%.

B11: anti-IGFBP7 nanobody F12 (VHH)
VHH: VQLQESGGGLVQPGGSLRLSCAASGFTFSINTYLWYRQPPGKQREFVAAITSGGSINYADSVKGRFTISRDNAKKTVYLQMNSLKPEDTAVYVCNIKAHPNPWGFDNDYWGQGTQVTVSS
notes: Llama nanobody expressed in E. coli as His6-tagged protein; not shown: His6 tag
B11: binds [10].

B12: A1-mIgG1 nanobody Fc-fusion (Fc fusion)
chain: VQLQESGGGLVQAGGSLRLSCAASGSLFAIDKWGWYRQVAGNERELVAWRYSPVSINYGDSVKGRFTVSGDSSRKRVYLQMNSLKPDDTAVYRCAAVISGAWYWGQGTQVTVSS
notes: VHH fused with mIgG1 Fc fragment, expressed in Expi293 cells; also called monospecific A1-mIgG1; not shown: mouse IgG1 Fc fragment (mIgG1 Fc)
With B12 the Kd [1] was 3.82 nM, the Kd [2] was 25.8 nM and the binding result [3] was “binds”. For the same binder, the Kd [4] was 3.19 nM, the Kd [6] was 3.82 nM and the binding result [7] was “binds”. For the same binder, the Kd [8] was 25.8 nM.

B13: anti-IGFBP7 nanobody Fc-fusion construct derived from A1 (Fc isotype not told) (Fc fusion)
chain: B12 chain
notes: may be the same as A1-mIgG2a or A1-mIgG1; not shown: mouse Fc fragment, mIgG2a or mIgG1
B13: binds [14].

B14: anti-IGFBP7 nanobody A01 (VHH)
VHH: B12 chain
notes: Llama nanobody expressed in E. coli as His6-tagged protein; also called A1; A1 VHH; not shown: His6 tag
B14: binds [10]; binds [11]; binds [12]. B14: binds [13].

— patent US20240150466A1 (DYNAMICURE BIOTECHNOLOGY, published 2024)
